Data taken from PMC11055835, “Small animal PET imaging with the ^68Ga-labeled pH (low) insertion peptide-like peptide YJL-4 in a triple-negative breast cancer mouse model” (EJNMMI Radiopharmacy and Chemistry, 2024).
Where two headings read alike, the source gives them in different places. Peptide text beside a SMILES is read from it. * marks the point of attachment. X1 = O=C(O)CN1CCN(CC(=O)O)CC(Cc2ccc(NC(=S)*)cc2)N(CC(=O)O)CC1; NOTA = O=C(O)CN1CCN(CC(=O)O)CCN(CC(=O)*)CC1; Ahx = NCCCCCC(=O)O

Tests used:
[1] = Serum stability in human serum; assay type: in vitro ADME
Method: (§1) Two hundred microliters of each ^68Ga-labeled peptide (18.5 MBq) was mixed with 1.0 mL of fresh human serum (or mouse serum) and incubated at 37 °C, and the radiochemical purity was detected at 30, 60, 120, and 240 min after mixing.

[2] = Serum stability in mouse serum; assay type: in vitro ADME
Method: as §1

[3] = Serum protein binding; assay type: in vitro ADME, mouse
Method: The resulting mixture was vortexed for 1 min and centrifuged (13,000 rpm) for 5 min. The supernatant was transferred to a 1.7 ml Eppendorf tube and then further centrifuged at 13,000 rpm for 2 min. The supernatant and sediment were collected separately, and the radioactivity was measured with a gamma counter to determine the serum protein binding of the radiotracer.

[4] = In vivo biodistribution; parameters: species or system BALB/c nude mice; settings: female, BALB/c nude, mouse, iv, 1.85 MBq/200 uL, total radioactivity
Excerpt: Twenty-four four- to five-week-old female specific pathogen-free (SPF) BALB/c nude mice (Hangzhou Ziyuan Experimental Animal Technology Co., Ltd., China, license number: […] The animal studies were approved by the ethics committee of Qingdao University, and the management of the animals adhered to the animal ethics standards. Eighteen tumor-bearing nude mice were selected for in vivo biodistribution experiments when the tumor diameter reached 0.8–1.0 cm. Mice were randomly divided into two groups: a YJL-4 group and a control group with 9 mice per group; each group had three time points. […] The mice were humanely sacrificed 1 h, 2 h, or 4 h after injection. The brain, heart, lungs, liver, kidneys, stomach, small intestine, blood, muscles, bones, and tumor were collected and weighed, and the radioactivity was measured. The biodistribution results are expressed as the percent of the injected dose per gram of tissue (% ID/g).

[5] = tested on: MDA-MB-231 tumor-bearing nude mice; assay: Small animal PET imaging; assay type: in vivo, BALB/c nude mice; settings: 2 and 4 h after injection, approx. 7.4 MBq/200 μL via tail vein, static 10-min PET, n = 3
Method: Human breast cancer cells (MDA-MB-231 cells from the Cell Bank of the Chinese Academy of Sciences) were cultured in high-glucose DMEM supplemented with 10% fetal bovine serum and 1% double antibiotic mixture (penicillin‒streptomycin mixture) at 37 °C in 5% CO2. Twenty-four four- to five-week-old female specific pathogen-free (SPF) BALB/c nude mice (Hangzhou Ziyuan Experimental Animal Technology Co., Ltd., China, license number: SCXK(Zhe) 2019–0004) were used to establish the MDA-MB-231 tumor model by subcutaneously inoculating 0.1 mL of cell suspension (50 µL of PBS + 50 µL of Matrigel) containing 1 × 10^6 MDA-MB-231 cells at the base of the right forelimb of each mouse. The animal studies were approved by the ethics committee of Qingdao University, and the management of the animals adhered to the animal ethics standards.
Six tumor-bearing nude mice were selected for imaging when the tumor diameter reached 0.8–1.0 cm. Mice were randomly divided into two groups: a YJL-4 group and a control group, with 3 mice per group; each group had two time points. Each tumor-bearing nude mouse was injected with approximately 7.4 MBq/200 μL of ^68Ga-YJL-4 or ^68Ga-kVar7 through the tail vein, and the mice were anesthetized with 2% isoflurane at 2 and 4 h after injection and imaged using static 10-min PET and moderate-resolution whole-body CT. […]

With `CC(C)C[C@H](NC(=O)[C@H](CC(=O)O)NC(=O)[C@H](CC(C)C)NC(=O)[C@H](CC(C)C)NC(=O)[C@H](CC(C)C)NC(=O)[C@@H](NC(=O)[C@H](CC(=O)O)NC(=O)[C@@H](NC(=O)[C@@H]1CCCN1C(=O)[C@H](Cc1ccccc1)NC(=O)[C@H](CC(C)C)NC(=O)[C@H](CC(C)C)NC(=O)[C@H](CC(=O)O)NC(=O)[C@H](C)NC(=O)[C@H](Cc1ccc(O)cc1)NC(=O)[C@H](CCCNC(=N)N)NC(=O)[C@H](C)NC(=O)[C@H](Cc1c[nH]c2ccccc12)NC(=O)[C@@H]1CCCN1C(=O)[C@H](CC(N)=O)NC(=O)[C@H](CCC(N)=O)NC(=O)[C@H](CC(=O)O)NC(=O)[C@H](CC(=O)O)NC(=O)[C@H](CS)NC(=O)[C@H](C)NC(=O)CCCCCNC(=S)Nc1ccc(CC2CN(CC(=O)O)CCN(CC(=O)O)CCN2CC(=O)O)cc1)[C@@H](C)O)[C@@H](C)O)C(N)=O` (stereo partly drawn) [^68Ga-YJL-4, metal not drawn] ({X1-Ahx}-ACDDQNPWARYADLLFPTDTLLLDL-NH2) the “Radiochemical purity after incubation in human serum” value [1] was ~95%, the “Radiochemical purity after incubation in mouse serum” value [2] was ~95% and the fraction unbound at 30 min ([3]; mouse, serum) was 0.678. It also gave a fraction unbound at 120 min ([3]; mouse, serum) of 0.685, a tissue uptake at 1 h ([4]; Biodistribution in tumors) of 5.94 ± 1.27 %ID/g and a tissue uptake at 2 h ([4]; Biodistribution in tumors) of 6.72 ± 1.69 %ID/g. The tissue uptake at 4 h ([4]; Biodistribution in tumors) was 4.54 ± 0.58 %ID/g, the tissue uptake at 1 h ([4]; Distribution in the blood) was 19.6 ± 3.92 %ID/g and the tissue uptake at 2 h ([4]; Distribution in the blood) was 8.23 ± 3.47 %ID/g. The tissue uptake at 4 h ([4]; Distribution in the blood) was 3.38 ± 1.91 %ID/g, the tissue uptake at 1 h ([4]; Distribution in the liver) was 20.5 ± 3.64 %ID/g and the tissue uptake at 2 h ([4]; Distribution in the liver) was 14.5 ± 3.98 %ID/g. The tissue uptake at 4 h ([4]; Distribution in the liver) was 10.2 ± 2.77 %ID/g and the “Visualization of tumors by PET” value [5] was “clearly visualized”.
With `CC(C)C[C@H](NC(=O)[C@H](CCCCN)NC(=O)[C@H](CC(C)C)NC(=O)[C@H](CC(C)C)NC(=O)[C@H](CC(C)C)NC(=O)[C@@H](NC(=O)[C@H](CCCCN)NC(=O)[C@@H](NC(=O)[C@@H]1CCCN1C(=O)[C@H](Cc1ccccc1)NC(=O)[C@H](CC(C)C)NC(=O)[C@H](Cc1c[nH]c2ccccc12)NC(=O)[C@H](CCCCN)NC(=O)[C@H](CC(C)C)NC(=O)[C@H](Cc1ccc(O)cc1)NC(=O)[C@H](CCCNC(=N)N)NC(=O)[C@H](C)NC(=O)[C@H](Cc1c[nH]c2ccccc12)NC(=O)[C@@H]1CCCN1C(=O)[C@H](CC(N)=O)NC(=O)[C@H](CCC(N)=O)NC(=O)[C@H](CCC(=O)O)NC(=O)[C@H](CCC(=O)O)NC(=O)[C@H](CS)NC(=O)[C@H](C)NC(=O)CN1CCN(CC(=O)O)CCN(CC(=O)O)CC1)[C@@H](C)O)[C@@H](C)O)C(N)=O` [^68Ga-kVar7, metal not drawn, reference compound] ({NOTA}-ACEEQNPWARYLKWLFPTKTLLLKL-NH2; N-terminus assumed) the “Radiochemical purity after incubation in human serum” value ([1]; 200 µL labeled peptide (18.5 MBq) in 1.0 mL fresh human serum, 37 °C, 240 min) was ~95%, the “Radiochemical purity after incubation in mouse serum” value ([2]; 200 µL labeled peptide (18.5 MBq) in 1.0 mL mouse serum, 37 °C, 240 min) was ~95% and the fraction unbound at 30 min ([3]; mouse serum, 37 °C, 30 min, 0.37 MBq, acetonitrile precipitation, gamma counter, mean ± SD, read-out: Serum protein binding rate (converted)) was 0.723. For the same compound, the “Serum protein binding rate” value ([3]; mouse serum, 37 °C, 60 min, 0.37 MBq, acetonitrile precipitation, gamma counter, mean ± SD) was 27.89 ± 2.02%, the fraction unbound at 120 min ([3]; mouse serum, 37 °C, 120 min, 0.37 MBq, acetonitrile precipitation, gamma counter, mean ± SD, read-out: Serum protein binding rate (converted)) was 0.75 and the “Serum protein binding rate” value ([3]; mouse serum, 37 °C, 240 min, 0.37 MBq, acetonitrile precipitation, gamma counter, mean ± SD) was 27.54 ± 0.86%. The tissue uptake at 1 h ([4]; 1 h after injection, 1.85 MBq/200 μL via tail vein, mean ± SD, n = 3, read-out: Distribution in the blood) was 20.6 ± 4.73 %ID/g, the tissue uptake at 1 h ([4]; 1 h after injection, 1.85 MBq/200 μL via tail vein, mean ± SD, n = 3, read-out: Distribution in the liver) was 21.3 ± 2.93 %ID/g and the tissue uptake at 2 h ([4]; 2 h after injection, 1.85 MBq/200 μL via tail vein, mean ± SD, n = 3, read-out: Distribution in the blood) was 9.88 ± 2.71 %ID/g. It also gave a tissue uptake at 2 h ([4]; 2 h after injection, 1.85 MBq/200 μL via tail vein, mean ± SD, n = 3, read-out: Distribution in the liver) of 14.8 ± 3.87 %ID/g, a tissue uptake at 4 h ([4]; 4 h after injection, 1.85 MBq/200 μL via tail vein, mean ± SD, n = 3, read-out: Distribution in the blood) of 3.17 ± 1.6 %ID/g and a tissue uptake at 4 h ([4]; 4 h after injection, 1.85 MBq/200 μL via tail vein, mean ± SD, n = 3, read-out: Distribution in the liver) of 11 ± 2.77 %ID/g. For the same compound, the “Visualization of tumors by PET” value [5] was “not visualized”.
